This note sets out measurements from the DeepSol protein solubility set.

This data set can be described thus: soluble on expression in E. coli; label from the status in PepcDB or PDB records.
For “MGSDKIHHHHHHADILNCILPAEMLTGTDIDYNRPYDKSLNAYPIYIEVNNGTDLTRLAPTFELTEGASIEPANGSTQNFTNPVRYTVTSEDKNWHRTYAINIHYPETKSIPTVFNFENVKTVPYNKNEYYVLYEAASGYSTLTWSSGNQGFALTGSGYTPNDFPTSISPNGRTGNCLQLITRKTGSLGTLVGMPIAAGNLFIGSFDIGSAMSDALSATKFGTTFYYEPIKLVGYYKYKAGPEFYENGESTNRKDVFNIYALFYEKTKDVQMLDGHIAKNNYEHENMVAAAVITDTHETSEWTRFELDFNYEHYGKTIDPQKLANGGYNVSIVLSASKDGDVFQGAPGSTLLIDDLELVCKQPLR”, the “soluble on expression in E. coli” value is given as “not soluble”. With “MNNSREDQWLQHYEQQNIQEITPCFNAINIASSSGSSLGDGGAAAHEAAGRRSRASRRAIPTTLLNANPSNFRALVQKFTGRSAGGESNRRKGPVTLDFGSPTTISKEAIFPVSSDRSNNNLDHVVNQHVSNEQRHVTWSGTESMMSYQLGEETNSAVYSSGYDDQDLPREYSGNSSYDESLDHMDYYQDFHRETATLEEFMMRDLDL” the entry was “soluble”; with “MKYTVITGASSGIGYAAALAFASRGKNLVLVARRQEELNGLKLKINEMHPELDVVIRKTDLSVTEDVYKLYESLQAFQIETWINNAGFGNFASIAEQNLNKIETMLHVNIEALTILSSLFVRDYSMIDGTQLINVSSGGGYTIVADAVTYCATKFYVSAFTEGLSHELKEQGAKLQAKVLAPAATETEFAKRSFDIDEFQYDNVVPKFHTAKQMAQFMLDLYDNDKVVGIVDGLTYNYELKDPLYNFAVRQKNSNS”, “not soluble”.

Consider “MARRNYQVERNKLEEKDPTWLMQKGQIQPLVSSLVVLNVEGERILARYTAKELFPTFDVEKKFEADLLKKSQTIPDLEENTGVFEHGQHIVVCRASEDLLFFVTSRIYENEVILSEVLTCWVDSLVKVLKNLPLNELNLLQHYEVLLLLVDELVDQEGVIMETDANELSSRTEFAMYSTDPRDLIPELTEQGFSHALQTAKQHLARTILK”, for which the “soluble on expression in E. coli” value is listed as “not soluble”. With “ATGWNNALGHTAANEEPQEEASSQTTSIHFPLDYKQWQEEQDINLLNRALEEAKFNQRQAAELLGLSYHQLRGMVRKYGLVGQS” the entry was “soluble”. Then “MGSDKIHHHHHHMNLDHLRYFVALSRTENYTQTAKLLHITQPSLTKAIHSLEAELNIDLFQKAGRSVTLTPAGKVFASDVESALLLLDKSVTNIKRFDQQKAPIRIAALRTLSIKWLPDIAQRFLQLSPHAAVQFQFNTDTGLSPDILNGLRNNKYDVAFCSKMDHFSDIEFFPVAEQTMVCITPTTHPLANRSSINLAETLAYPQITFSQRSGLHPIMQKLFNDCGGQPISAYAVEEDQAIAGLVASGFGIAVVPNMSILQTMPVKIIPLSFPTWQRILYMGTLKHRTPQPAVEEFITFVRDQSKTLSVNNI”, with “not soluble”; and “MTRQEELAAARAALHDLMTGKRVATVQKDGRRVEFTATSVSDLKKYIAELEVQTGMTQRRRGPAGFYV”, with “soluble”; and “AHHHHHHGSDIKPGKITVQANPNMPEEIANLFRKQHYELVGRHSGVKLCHWLKKSLTEGRFCYKQKFYGIHSHRCLQMTPVLAWCTHNCIFCWRPMETFLGTEVPEPWDDPAFIVEESIKAQRKLLVGYKGNPKVDKKKFEEAWEPKHAAISLSGEPMLYPYMGDLVEEFHKRGFTTFIVTNGTVPESLREMIKDDKLPTQLYVSLTAPDIESYNKVNIPMIPDGWEKILEFLELMRDIPTRTVVRLTLVKGENMHNPEGYARLIMKARPMFVEAKAYMFVGFSRNRLTINNMPSHEDIREFAEALVKYLPGYHIEDEYEPSRVVLIMRDDVDPSGTGLEGRFIKH”, with “not soluble”.

Regarding “MGHHHHHHSHMSCTIEKILTDAKTLLERLREHDAAAESLVDQSAALHRRVAAMREAGTALPDQYQEDASDMKDMSKYKPHILLSQENTQIRDLQQENRELWISLEEHQDALELIMSKYRKQMLQLMVAKKAVDAEPVLKAHQSHSAEIESQIDRICEMGEVMRKAVQVDDDQFCKIQEILAQLELENKELRELLSISSESHQARKENSMDTASQAIK”, the “soluble on expression in E. coli” value is “not soluble”. As for “MIHEASIQHGSFGKMVADWPQEKITELWAYLKKHGSRLGGNTGPYTLRQMGADTFILSNDVEAYLRNCKIIEGGKDTKKSHDAATQAFMQWQKESGRSLTEISQIIAFSTGDNRL”, the “soluble on expression in E. coli” value is listed as “not soluble”. In the case of “TTPMNLTDAIAYILRPFAVLKVPVNDIALMISVALRFIPTLMGETDKIMKAQRARGVDFGEGNLFEQMKVVVPIFIPLFVSSFNRAEELADAMEARGYQGGEGRTRFRILH”, the “soluble on expression in E. coli” value is listed as “not soluble”. “MTLTSDDLRQIAALTLAHYDDNAVSFEVGTRDHDVSQNIAALLRHIQGDPPYAILDFGCGPGRDLKTFAALGHAAVGLDGAAHFVAMAHQATGCEVWQQDFLRLALPAGRFDGIFANASLFHVPTQELPRVLGELRDTLKPGGVLFCSNPRGGNEEGWSRGRYGVWHDWESWRALLEAAGFQALEHYYRPAGLPREQQQWLASVWRRLEHHHHHH”: the “soluble on expression in E. coli” value is on record as “soluble”. With “MESTKSYDIPILRNVSRSFSVHYRDYLQRCGIFVPKEGNSSGPDAYVVFHNGQTRYVVGFSFKFYHKSEFSKRNIEEEAKKFFKGVVSVLNDESFSSVQLRFQFVMVVCTSYGRSVVFSSEEQNIVEDASYLVTEHSSGSTLNESSRSCLQLVIVSQRNLEMYLGRDNVETLRKIGEASREEFSKDFSVWCETVFESMSNEYVSPLEQSNVTLRVARNIRPRTNEENRMQIEELQTAMKVERSVAASSSLSSSFDWNTFLREYCGLSEEDVAYCLPKVEDIDMDELPAVTKEILRDLGIDKPALRLKIRSSIRSYLANER” the entry was “soluble”; with “MSDPAGNRPKTEKELKKEAEKAAKLAKFEEKQKKLAEKKAAASDKPVKEAKAKKEQTVEAAEPVDQTPTGQRKKIDGEIPAAYFPGYVESGWYSWWEKEGFFKPEYIDKLNPGSNPADSFTVCIPPPNVTGNLHVGHALATTVEDTITRFNRMHGKRTLFNPGCDHAGIATQVVVEKRLKRERGLTRHDLGRDRFNQEVWHWKNEKGDVIYDQFRKLGASVDWDRAVFTMDPKMCRAVTEAFIRMHESGTIYRSNRLVNWSCALRSAISDIEVDKKELTGSTLIAVPGYDKKIEFGVLNSFAYKIQGSDEEIVVSTTRIETMLGDSGVAVHPDDQRYKHLVGKQCIHPFIPTRNLPIFADSFVEMEFGTGAVKITPAHDHNDYEVGIRQNLPFHNCITDDGLISQGCGEFSGMKRFDARTAVIEALKEKGLYRGKEDNPMVVPTCSRSKDVIEPILKPQWYVKCAHMAEKAVAAVANGDLQIIPEFHKATWNRWLESSRDWCISRQLWWGHRIPAYYISFADGREQPLPEENYWVSARTEQEALAKAAQKFQVPEAEILLKWDEDVLDTWFSSGMWPFAVFGWPDATKDMDLFFPGAVLETGHDILFFWVARMVFMAQELTGKLPFKEILLHAMIRDAHGRKMSKSLGNVIDPLDVIRGISLNDLQAQLLGGNLDEKEIAVAKEGQARDYPDGIPECGVDALRFALLSYTSQGRDINLDVLRVHGYRKFCNKLWQVVRFALARISDKPEQKPTFEINLKSATPTDLWILSRLAKAVKETNEALKAYNFTQATTVTYNFWLYDFCDVYVETIKPVLYGDNTTLRQVAISVLHKCIDTGLRLISPLMPFISEELWQRMPRLDDSDYTSPSIIVAQYPLTQKYEKYQNEKLEAAFEFAQELIGKVRSLRADYDLKKTKITMQILSETPEDESMLNDISAVITTLTFSEKVSILNKCESDKIEKGSAHIACGGRCQVYINLTGIIDVPKEIEKLGAKLQKNQISVKKIGDIQSSADYEQKVPVDIRALDQEKKATLEKEIENITAAIAQLKALN”, “not soluble”; with “MALSEQSKDLSDPNFAAEAPNSEVHSSPGVSEGVPPSATLAEPQSPPLGPTAAPQAAPPPQAPNDEGDPKALQQAAEEGRAHQAPSAAQPGPAPPAPAQLVQKAHELMWYVLVKDQKKMIIWFPDMVKDVIGSYKKWCRSILRRTSLILARVFGLHLRLTSLHTMEFALVKALEPEELDRVALSNRMPMTGLLLMILSLIYVKGRGARESAVWNVLRILGLRPWKKHSTFGDVRKLITEEFVQMNYLKYQRVPYVEPPEYEFFWGSRASREITKMQIMEFLARVFKKDPQAWPSRYREALEEARALREANPTAHYPRSSVSEGHHHHHH”, “soluble”. Then “NILTDGAIKKLTLNKLFERYMSTRELKESTRANYLKTWENRVKDEIGNIKVIQILPSHIKSFYSKLSKAGYAYSTIKFINNMIYPALEMAVDDDIIRKNPAKFSISDYGRQAEERIALTVLQQEKMLEFVKNNQVYNTYYPMLRIMLGTGVRCGELIGLTWEDVDVRTKAVSIDHQLIYKDLGDGYKFHISTPKTDSGIRTIPMTSDVQRAFEEQKKLNFMLQKGKDVEIDGYKGFIFMAKSGRPLMPSAINNILYNIVDAYNKKEVQIAKTEHRNAELLPTVSAHIMRHTACTRMAEKRMDVKVLQYIMGHAHIDVTMDVYNHVSEMSRIESEITRLESVAIS”, with “not soluble”; and “MEDLQLQVTMRDFLDALTEVEPSATREFAMEIPTATWEDIGGLEKIKERLQAMVEWPLRYPELFQQFGLQTPKGILLSGPPGTGKTLVAKALARESGINFIPVNSSLLFSHWWGEAEKTLHEVFRKARQASPCLLFFDELDALVPARKAGEGSSIGSRLVSQFLMELDGLEELREVIVLGATNRIDMIDPAVLRPGRFDQILEFPYPDQAARKEIFQIYLRNRPVDPGINLDSLAGAAEGLVGSEIEALCKRAALLAVSEVINHKGAGAYIKTCHLEQALAEIQAEKQQARTGAENHTLRPVWNNVVPGAISQVGRLEHHHHHH”, with “soluble”; and “GAMGKVGVGKKAEAVATVVAAVDQARVREPREPGLPEDSYAQQTTLEYGYKEH”, with “soluble”. For “GPGSMSLTTTARTPATVGKLSPSSGIFSIPDNISPVTAEEVPKSRDSLLTDMSLSELSRQSVLQSEPVVLRLCHVGKSYPIAGSDERVVALKDITLAESKHSNAATTKQGASTTNCLQRSNLPPPFAPVRRGEFVMIRGPSGGGKTTLLNIIGSIDSCTEGNIELNGRIIDKDTKESVLADIRLKNIGFVFQTFNLIATMTAAENVELPMTLLGTMSTKAMRLRSRQLLTLVGLRNRINHLPSELSGGEQQRVTIARSLANNPSILLLDEPTGDLDTANTIEVMDLLMRINRRTKTTCIMVTHNPDIECYADRILYVSDGRFAKEVFNALPMCLDLENYTEYLAAKERAITGFAGVGDVEDDSEPRATAAMAECIGTKGCEIEKPNSSPVLMEPLTEGQSACSIVSPAASRSAVVQPLCPPAAATAPSVNGVTQTVLDTTHHGSASVPPASASSALLQREEREVPNGL”, the “soluble on expression in E. coli” value is reported as “soluble”.

Take “MGSDKIHHHHHHMSKNVLIVSASPRKGGNSDLLCDQFIQGVLESKNQVEKIFLKDKDINYCTGCGACYEKEANCSQTDDMGEILEKMIGADVIVLATPVYFYTMNAQMKTMIDRTCSRYTEICDKDFYFIVTAADENVADMERTIEGFRGFTSCLNGSKEKGIVYGVGAWNVGDIKGSKAMKQAYEMGKLA”: the “soluble on expression in E. coli” value is on record as “not soluble”. For the sequence “CPEIEAQGNECLKEYGGDVGFGFCAPRIFPTICYTRCRENKGAKGGRCRWGQGSNVKCLCDFCGDTPQ”, the “soluble on expression in E. coli” value is “soluble”. Then “MAVYLDFENHIKEIQNEIELALIRGDEDAKEILEKRLDKEVKSIYSNLTDFQKLQLARHPDRPYAMDYIDLILKDKYEVFGDRHYNDDKAIVCFVGKIDNVPVVVIGEEKGRGTKNKLLRNFGMPNPCGYRKALKMAKFAEKFNLPILMLVDTAGAYPGIGAEERGQSEAIAKNLQEFASLKVPTISVIIGEGGSGGALAIAVADKLAMMEYSIFSVISPEGCAAILWDDPSKTEVAIKAMKITPRDLKEAGLIDDIILEPSKGAHRDKFSAANTIKEYFLDALRTIQQDPHFLDNRYQKLMSLGSFVESMN”, with “soluble”.
